Tests used:
Details in all cases: tags: expressed from recombinant adenovirus AxCANCre in 293 cells
Cre recombinase [1] = target: T1, Cre recombinase (UniProt P06956 P06956:1-343); experiment: self x self; intermediate 3
Protocol: Substrate DNA (1 μg) prepared in (3) and cell extract containing Cre (10 μl) prepared in (1) were incubated at 37° C. for 30 min in a 50 μl volume of buffer containing 50 mM Tris-HCl (pH 7.5)/10 mM MgCl2/1 mg/ml bovine serum albumin/1 mM phenylmethylsulfonyl fluoride (PMSF)/5 μg/ml aprotinin. After completion of the reaction, 45 μl of TE buffer (pH 8.0) and 5 μl of EDTA solution (pH 8.0) were added to the reaction mixture, extracted with phenol/chloroform and with chloroform, followed ethanol precipitation. The recovered DNA was dissolveld in 30 μl of TE buffer (pH 8.0) containing RNase A (20 μg/ml). Half volume thereof was digested with restriction enzyme BsaHI. The DNA bands detected by ethidium bromide (EtBr) staining after agarose gel electrophoresis, were analyzed.
Before recombination mediated by Cre, restriction enzyme BsaHI digestion of linear substrate DNA (approx. 4.1 kb) generates four bands of 2.7 kb, 610 bp, 380 bp and 360 bp. On the other hand, as a result of recombination of substrate DNA mediated by Cre, a circular DNA of approx. 4.0 kb containing one mutant loxP, and a linear DNA of approx. 50 bp consisting of only mutant loxP, are produced. Digestion of these DNA with restriction enzyme BsaHI generates four bands of 2.7 kb, 920 bp, 380 bp and 50 bp (refer to FIG. 6).

Cre recombinase [2] = target: T1, Cre recombinase; experiment: self x self; intermediate 0
Cre recombinase [3] = target: T1, Cre recombinase; experiment: self x self; intermediate 2

T1 sequence (P06956 whole entry, one chain of several): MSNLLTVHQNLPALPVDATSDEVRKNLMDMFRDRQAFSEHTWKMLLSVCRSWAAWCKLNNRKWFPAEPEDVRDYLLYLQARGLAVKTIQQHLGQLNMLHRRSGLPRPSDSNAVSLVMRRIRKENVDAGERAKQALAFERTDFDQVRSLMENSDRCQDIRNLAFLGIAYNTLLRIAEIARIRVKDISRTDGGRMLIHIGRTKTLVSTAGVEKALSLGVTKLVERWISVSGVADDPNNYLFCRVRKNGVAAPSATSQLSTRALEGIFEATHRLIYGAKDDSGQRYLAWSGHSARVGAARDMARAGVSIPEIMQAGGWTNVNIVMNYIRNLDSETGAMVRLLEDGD

Row | Binder | activity (Cre recombinase [2]) [grade 0-9 final product] | activity (Cre recombinase [3]) [grade 0-9 final product] | other results
1 | mutant loxP #81 (dsDNA) DNA 1: ATAACTTCGTATAATGTATGTTATACGAAGTTAT DNA 2: ATAACTTCGTATAACATACATTATACGAAGTTAT |  |  | activity (Cre recombinase [1]): 3 grade 0-9 final product
2 | mutant loxP #6171 (dsDNA) DNA 1: ATAACTTCGTATAATGTACACTATACGAAGTTAT DNA 2: ATAACTTCGTATAGTGTACATTATACGAAGTTAT | 6 |  | 
3 | mutant loxP #2372 (dsDNA) DNA 1: ATAACTTCGTATAAGGTATCCTATACGAAGTTAT DNA 2: ATAACTTCGTATAGGATACCTTATACGAAGTTAT |  | 0 | 
4 | mutant loxP #2271 (dsDNA) DNA 1: ATAACTTCGTATAAAGTATACTATACGAAGTTAT DNA 2: ATAACTTCGTATAGTATACTTTATACGAAGTTAT |  | 6 | 
5 | mutant loxP #4171 (dsDNA) DNA 1: ATAACTTCGTATAATGCATACTATACGAAGTTAT DNA 2: ATAACTTCGTATAGTATGCATTATACGAAGTTAT | 4 |  | 
6 | mutant loxP #4172 (dsDNA) DNA 1: ATAACTTCGTATAATGCATCCTATACGAAGTTAT DNA 2: ATAACTTCGTATAGGATGCATTATACGAAGTTAT |  | 4 | 
7 | mutant loxP #5171 (dsDNA) DNA 1: ATAACTTCGTATAATGTGTACTATACGAAGTTAT DNA 2: ATAACTTCGTATAGTACACATTATACGAAGTTAT | 6 |  | 
